In the nanobody polyreactivity screen of Harvey et al. (2022):

Assay: yeast display, Sf9 membrane polyspecificity reagent, FACS + sequencing; frameworks hold sequencing errors
In short: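 Nanobodies came from a synthetic yeast display library in Saccharomyces cerevisiae BJ5465, induced with galactose for 36–48 hours and stained for 1 hour at 4 °C with 10% biotinylated, detergent-solubilized Sf9 membrane reagent. Cells were enriched on streptavidin microbeads and then FACS-sorted, with low and high (top ~1%) gates set on anti-HA fluorescence for expression and streptavidin fluorescence for reagent binding. Each polyreactivity label reflects the gate a clone came from. Genes were amplified by colony PCR, sequenced by MiSeq 2 × 250 and filtered by CDR length.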

Sequence | polyreactivity (PSR sort gate)
QVQHVESGGGLVQAGGSLRLSCAASGRTFYKNTMGWYRQAPGKERELVAGISQRGGRTYYADSVKGRFTISRDNAKNTVYLQMNSLEPEDTAVYYCNKRRAAGGFPFDYWGQGTQVTVSS | high polyreactivity
QVQHVESGGGLVQAGGSLRLSCAASGRTFYRNAMGWSRQAPGKELELVAAITRSGGSTYYADSVKGRFTTSRDNAKNTVYLQMNSLQPEDTAVYYCARRLYPYRPTPYDYWGQGTQVTVSS | low polyreactivity
QVQHVESGGGLVQAGGSLRLSCAASGRTFYYNDMGWSRQAPGKERELVAAISWSGVSTSYADSVKGRFTISRDNAKNTVYLQMNSLKPEDTAVYYCAADNDGWYFHITEYDYWGQGTQVTVSS | low polyreactivity
QVQHVESGGGLVQAGGSLRLSCAASGRTSYTNAMGWSRPAPGKERELVAAINYSGGSTYYADSVKGRYTISRDNAKNTVYLQMNSLKPEDTAVYYCAAERYYWYTEMGYWGQGTQVTVSS | high polyreactivity
QVQHVESGGGLVQAGGSLRLSCAASGRTVASYAMGWYRPAPGKERELVAVITRGGRTYYADSVKGRFTISRDNAKNTVYLQLNSLKPEDTAVYYCKAAYYSSSYLEDSWGHGTQVTVSS | high polyreactivity
QVQHVESGGGLVQAGGSLRLSCAASGSIFAHYTMGWYRQAPGKERELVAVISRSGARTYYADSVKGRFTISRDNAKNTVYLQMNSLKPEDTAVYYCAADRNLEEDYWGLGTQVTVSS | low polyreactivity
QVQHVESGGGLVQAGGSLRLSCAASGSIFASYAMGWYRLAAGKERELVAAISRRAVLTYYADSVKGRFTISRDNPKNTVYLQMNSLKPEDTAVYFCNARGYSGYQRYGYNYWGQGTQVTVSS | high polyreactivity
QVQHVESGGGLVQAGGSLRLSCAASGSIFIPNAMGWYRQAPGKERELVAAITSGGRTYYADSVKGRFTISRDNAKNTVYLQMNSLKPEDTAVYYCAARSGYRYVESEYWGQGTQVTVSS | high polyreactivity
QVQHVESGGGLVQAGGSLRLSCAASGSIFLPYAMGWYRQAPGKQRELVAAISDRGSTYYADSVKGRFTISRDNAQNTVYLHMNSVKAEDTAVYYCAKVYLLFVGALQFDYWGQGTQVTVSS | low polyreactivity
QVQHVESGGGLVQAGGSLRLSCAASGSIFNRYAMGWYRQAPGKERELVAAITYNGGSTYYADSVKGRFTISRDNAKNTVYLQMNSLKPEDTAVYYCAAERYNGYDYWGQGTQVTVSS | high polyreactivity
QVQHVESGGGLVQAGGSLRLSCAASGSIFVNNAMGWYRQAPGKERELVAAIRRSGGNTYYADSVKGRFTISRDNAKNTVYLQMNSLKPEDTAVYYCNVVRRADSIRAKSRDYWGQGTQVTVSS | high polyreactivity
QVQHVESGGGLVQAGGSLRLSCAASGSIFYVNAMGWYRQAPGKERELVAAITRDGSTNYADSVKGRFTISRDNAKNTVYLQMNSLKPEDTAVYYCAADFVRYIDREDYWGQGTQVTVSS | low polyreactivity
QVQHVESGGGLVQAGGSLRLSCAASGSIFYVYAMGWYRQAPGKERELVASINKSGGSTYYADSVKGRFTISRDNAKNTVYLQMNSLKPEDTAVYYCAARTGWPRVGFQYPAHVGFDYWGQGTQVTVSS | low polyreactivity
QVQHVESGGGLVQAGGSLRLSCAASGSIFYYYTMGWYRQAPGKERELVAAITSGGSTYYADSVKGRFTISRDNAKNTVYIQMNSLKPDDTAVYYCAAEYHSFLWDMDYWGQGTQVTVST | high polyreactivity
QVQHVESGGGLVQAGGSLRLSCAASGSIISYYAMGWSRQQPGKERELVAAITANGGSTSYADSVKGRFTISRDNAKNTVYLQMNSLKPEVTAVYYCAKESDYPYYVSTKGDYDYWGQGTQVTVSS | low polyreactivity
QVQHVESGGGLVQAGGSLRLSCAASGSTFAFNTMGWYRQSPGKEWELVAGISSNGGRTYYADSVNGRFTISRDNAKNTVYLQMNSLKPEDTAVYYCNRASVFHYRWYYYWGQGTQVTVSS | high polyreactivity
QVQHVESGGGLVQAGGSLRLSCAASGSTFAVYTMGWYRQAPGKERELSTSYADSVKGRFTISRDNAKNTVYLQMNSLKPEDTAVYYCNRDFYEFDSNSYRFDYWGQGTQVTVSS | low polyreactivity
QVQHVESGGGLVQAGGSLRLSCAASGSTFDDNTMGWYRQATGKERELVAAITRSGGSTYYADSVKGRFTISRDNAKNTVYLQMNSLKPEDTAVYYCATYPYSPYYYVYVEPYDYWGQGTQVTVSS | low polyreactivity
QVQHVESGGGLVQAGGSLRLSCAASGSTFDSNDMGWYRQAPGKEWELVPGITWSGASTYYADSVKGRFTISRDNAKNTVYLQMNSLKPEDTAVYYCAAGPWGTGHYVQGPVYYYRYDYWGQGTQVTVSS | low polyreactivity
QVQHVESGGGLVQAGGSLRLSCAASGSTFDVYALGWDRQAPGKERELVAAISESGSSTYYADSVKGRFTISRDNAKHTVYLQMNSLKPEDTAVYSCNALYYDWHPEYQVIFSYFYYWGQGTQVTVSS | low polyreactivity
QVQHVESGGGLVQAGGSLRLSCAASGSTFNSYDKGSYRQAPGKERELVAAISSSAASTYYADSVKGRFTISRDNAKKTGYLQMNSLKPEDTAVYYCAAYVYYTYPSCTVYSVSYIYDYWAQGTQVTVSS | low polyreactivity
